{"source": "patent US20250163168A1", "about": "“NOVEL ANTIBODIES AND ANTIBODY CONJUGATES FOR THE TREATMENT OF METABOLIC DISORDERS” (PFIZER INC., priority 2023, published 2025)", "key": {"[1]": {"system": "diet induced obese (DIO) hGIPR mice", "test": "Body weight gain prevention and food intake in DIO hGIPR mice on high fat diet", "type": "in vivo, mouse", "conditions": "1 mg/kg s.c. twice a week, 60% high fat diet, compared to IgG control (FIG. 6)", "source_text": "Male hGIPR mice between 18-21 weeks of age were utilized which had been on 60% high fat diet (D12492, Research Diets) for 14 weeks prior to the start of the study and were singly housed, maintained on a 12-hour light/12-hour dark cycle, and received food and water ad libitum. Prior to the start of the study, mice were randomized into each group based on body weight. […] Mice were continued on 60% high fat diet for the duration of the study. In FIG. 2, number of animals per group=10; Data are presented as the mean and error bars are SEM.\nTo determine statistical significance for the body weight endpoint, a generalized least squares linear model with appropriate fixed effects and correlation and variance structure are used for BW outcomes. All residuals were evaluated for meeting the normality assumption with the Shapiro-Wilks Test and Q-Q Plots and the sphericity and homoscedasticity assumption by the residual plots and Bartlett's test. […]\nMale hGIPR mice between 18-21 weeks of age were utilized which had been on 60% high fat diet (D12492, Research Diets) for 14 weeks prior to the start of the study and were singly housed, maintained on a 12 hour light/12 hour dark cycle, and received food and water ad libitum. […] Percent change in body weight at each time point was calculated based on difference from pre-dose weight, and 24 hour food intake was measured during week 3. […]"}, "human GIPR (hGIPR)": {"biological_target": "T1, human GIPR (hGIPR) (Homo sapiens, UniProt P48546)", "T1 sequence (P48546 22-466)": "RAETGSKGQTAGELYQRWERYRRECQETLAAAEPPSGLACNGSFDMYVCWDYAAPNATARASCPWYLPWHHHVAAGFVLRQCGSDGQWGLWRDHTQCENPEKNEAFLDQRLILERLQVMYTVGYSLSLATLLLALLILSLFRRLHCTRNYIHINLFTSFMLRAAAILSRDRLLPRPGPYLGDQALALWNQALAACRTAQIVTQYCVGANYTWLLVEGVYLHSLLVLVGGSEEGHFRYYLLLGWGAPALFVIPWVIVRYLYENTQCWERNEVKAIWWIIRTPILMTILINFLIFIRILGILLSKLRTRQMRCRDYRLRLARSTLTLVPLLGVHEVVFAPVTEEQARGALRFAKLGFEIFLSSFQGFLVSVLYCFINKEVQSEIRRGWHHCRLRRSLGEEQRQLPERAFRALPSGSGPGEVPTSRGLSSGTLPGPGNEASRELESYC", "test": "Functional in vitro GIPR antagonist potency assay (human GIPR-CHO cAMP, HTRF)", "type": "cell-based", "conditions": "CHO-K1 cells stably expressing hGIPR, 1.5 nM hGIP", "source_text": "Following agonist activation, hGIPR associates with the G-protein complex causing the Gas subunit to exchange bound Guanosine diphosphate (GDP) for guanosine triphosphate (GTP), followed by dissociation of the Gas-GTP complex. The activated Gas subunit can couple to downstream effectors to regulate the levels of second messengers or cAMP within the cell. Thereby, determination of intracellular cAMP levels allows for pharmacological characterization. Intracellular cAMP levels were quantified using a homogenous assay utilizing the Homogeneous Time Resolved Fluorescence (HTRF) technology from Perkin Elmer. The method was a competitive immunoassay between native cAMP produced by the cells and cAMP labelled with the acceptor dye, d2. The two entities competed for binding to a monoclonal anti-cAMP antibody labeled with cryptate. […] G2269) in 1× cAMP assay buffer was added to the assay plate (5 μL/well) at 4.5 nM (final concentration of 1.5 nM) and incubated for another 30 minutes at 37° C., after which intracellular cAMP levels were quantified with Cisbio cAMP-GS Dynamic kit (#62AM4PEC) with dilution of 20× of D2 and Eu in lysis buffer, mixed 1:1 by volume, and added 15 ul/well into plate, with a quick spin. […] The plate was then read on an Envision plate reader. Data were analyzed using the ratio of fluorescence intensity at 620 and 665 nm for each well."}, "mouse GIPR/GIP": {"biological_target": "T2, mouse GIPR/GIP (Mus musculus, UniProt Q0P543)", "T2 sequence (Q0P543 19-460)": "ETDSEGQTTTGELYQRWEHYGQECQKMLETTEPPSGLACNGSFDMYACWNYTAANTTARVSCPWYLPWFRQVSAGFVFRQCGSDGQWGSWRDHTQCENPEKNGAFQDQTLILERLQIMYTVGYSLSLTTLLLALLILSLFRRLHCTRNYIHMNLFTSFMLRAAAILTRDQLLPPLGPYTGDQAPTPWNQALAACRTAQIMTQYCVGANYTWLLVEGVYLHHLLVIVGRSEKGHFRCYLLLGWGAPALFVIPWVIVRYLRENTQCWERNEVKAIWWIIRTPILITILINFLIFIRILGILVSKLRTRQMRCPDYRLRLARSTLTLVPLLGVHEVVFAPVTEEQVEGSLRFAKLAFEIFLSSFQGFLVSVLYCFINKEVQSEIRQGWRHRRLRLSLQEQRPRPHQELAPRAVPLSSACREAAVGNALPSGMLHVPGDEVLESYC", "test": "Cross-species activity to mouse GIPR/GIP"}}, "data": [{"substance": "2G10: fully human monoclonal anti-GIPR antagonist antibody portion of AMG 133 (maridebart cafraglutide); benchmark antibody [reference compound]", "values": [{"measurement": "body weight gain", "setting": "[1]", "value": "reduced body weight gain"}, {"measurement": "IC50", "setting": "human GIPR (hGIPR)", "value": 30.4, "unit": "nM"}, {"measurement": "cross-reactivity to additional species such as mouse GIPR", "setting": "mouse GIPR/GIP", "value": "not cross-reactive"}]}]}
